The data set in a line: label from the status in PepcDB records.

With “MPAIFTHEGKVEGVPGNYPLTAENLFRIGLALCTLWILDKEIEEPTLSIPETNFVTLALSVGFMNAGGSVNVGKGGDIKLFLQKGEIYVLEFQPLSETDIKKLESILFGRAPIPKKTGEDIGSFKC”, the protein production entry was “not failed”. The entry for “MPAKPIDLGPMHFEKKEDAVAYLHKMLHRYDLGDKVSDDDAIILRAALAHHRDAEVKVGCGITYFSVRTADFGTRCFWLNRNDGTTEKFSHKTCIYSTLEHHHHHH” is “not failed”; for “MPAKQPTPKQEPATKAGRCLARSFMKTLIKDCSVSAIVAGSIATTISYAGPLVIIFHAAEAAGLSHQQLSSWVWAVSMGSALLGALLSLRYRVPVVIAWSIPGSALLVTALPQLGLEQAVGAYLVANLVLLLIGISGAFDRIIARLPGSIAAGMQAGILFSFGIEVFRALPVQPLLVLAMFVTYVLMRRVQPRYAVAAVLGVGMLVTVASGTLRSEALVLELASPQWITPQFSLSAVFSLALPMVLVALTGQFMPGMAVLRNAGYPTPASPLISASALIGVLLAPFGCHGLNLAAVTASLCTGHEAHENPQRRYVAAVAGSVLYLLLGIAGATLMSLFAAFPAVLIAALAGLALYGAISEALVRSLAEPAERDAGLFTFLVTASGVAFLGLSAAFWGLLFGLLAHALLRLRQPRAREVLRRTP” it is “not failed”. Regarding “MPALCSTVQTLEKLAKDDVSSLALLGRSVMHDNALTSRILRVANSAIYHKGSTQISTVSRAAIVLGFDAVRNICITAQLLSSLLESKNLAPSVYQRLIKLMAKAFQAAMLTRMMLSDYDDDIQEEAFIACLLFHIGESAFWSIGGEFTETLDSQLTECETSADERSLIRETIGTSFSQLTQSIARHWGLGELLIQAVNYPDDPRPEIRSIFLADKLCDTLSVATPDKNDLEKYINQAANFTGLDETEFTLKMQRCTKATHKLAEAYGAKVLIDYLPDPQRIDKLEPYLPEAELPIFEANLNVQLVKLRELTAFAINKADFNQIMQTVLEGILEGVGVDRCGVLLLSPSRKQLQPRIMLGRDAEEMKRQFIIELGDRKGLFPMAMEHKESLWVDSPCAKKWQEQCRELKVQLPESGFLVAPLLVDNKVIGFYYADRGPSERCFAEVDFQAFIHFSQLANVCFTVSLK”, the protein production result is given as “failed”.

Regarding “MPALDLIRPSVTAMRVIASVNADFARELKLPPHIRSLGLISADSDDVTYIAADEATKQAMVEVVYGRSLYAGAAHGPSPTAGEVLIMLGGPNPAEVRAGLDAMIAHIENGAAFQWANDAQDTAFLAHVVSRTGSYLSSTAGITLGDPMAYLVAPPLEATYGIDAALKSADVQLATYVPPPSETNYSAAFLTGSQAACKAACNAFTDAVLEIARNPIQRA”, the protein production result is recorded as “failed”. Turning to “MPANPRQDLDRYRAKRDFARTPEPQGRSEAPRPEAESLSFVVQKHAASRLHWDFRLEWNGVLLSWAVTRGPSPDPSARRLAVRTEDHPLDYAEFEGTIPKGEYGGGTVMLWDRGTWEPQGDFAEGLRTGQLKIRLAGERMRGRWTLVRMKPRPREKAENWLLIKEHDTHESEQTEELVERHMTSVATGRTMEQIAAGKAPPRRTRQAALPAFRPLQLARLVSAAPEGEDWIHETKFDGYRCLAALAGGRARLYTRSGLDWTAKFGALVEDVEALEAQEALIDGEVIAPGREGGSFSELQARLKSGGQLLFMTFDLLLLDGEDLTGQPLLARKERLKTLIGKGRGAVRFSGHIRGHGPEVHERICAAGLEGIVSKRASAPYAGSRNGDWLKVKCAHRQEFVICGWNASDKPGRPFASLVMGSYEKSRLVYRGSVGSGFGAPLFRELKPLLAERAQSACPFDRTPAEAKGAHWLKPELVAEVSFTELTAEGHIRHGVFAGLRSDKDAREVRLEEPAPETPAPRKSGVRKKGTKTARPDAPSPDEPAPEPARKPRTARGEKKETTMARPDDLRVAGIRISHPDRRIYDRPAVTKREVAEHAEALAPRMLRFLKDRPVSLLRCPEGAAAECFFQKHRTRGMPVAMKTVPVETKSGPEDFITLPDVAALVGATQMGTLEFHIWGSRNRSLQRPDRLVFDLDPDEGLDFAHVRTAAAELRGLLTDLGLPSVPMLSGGKGVHVIVPLKPKAEWESVKLFSRALATHLAQEAPDRYTATMAKAGRKGRIFIDWLRNDRGSTAIAPYSLRARPGAPVATPVDWDELASARSGGDWTIRSIRDRLDRPCPLAEASARPATLGRTVIGRLERLVAGGKP”, the protein production result is listed as “failed”. The result for “MPAPLRFSSDKPLLLLIDMQQAVDDPSWGPRNHPQAEQACAGLLQAWRARGLPLIHIRHDSVEPNSTYRPGQPGHAFKPEVEPRPGETVIAKQTNSAFIGTGLEALLRANGWLELVVAGVSTSNSVEATVRMAGNLGFAVCLAEDGCFTFDKTDWHGRRRSADEVHAMSLANLDGEYCRVCGSADILAALGNIAGAA” reads “not failed”; that for “MPAPRFAQASEVPGLAARRIAADILDGVLQKRRMLDDQLEGPAAHPGLKTLSDRDRALMRRLVATILRRLGTLEGLLAKLLDRGVPTDAPRAKSALLIGAAQILWMDVPDHAAVDLSVRLVQSDRRAAKYAGLVNAVLRRCAREGQPLVEELAAGTPDVPQWLLARWSEHYGAETTRAIAHAISHEPSLDLTVKSDPAHWAARLHGEVLPTGTVRTLLQGSVRMLPGFDEGQWWVQDAAAALPARLFGDIAGKSVADLCAAPGGKTAQLAAAGARVTAIDRSPARVARLRENLARLSLKVETGVADAAEWRGDATAEFDAVLIDAPCASTGTIRRHPDVAWLKQESDIGALAAVQNRLLKKAASLLRPGGTLVYCTCSLEPEEGEQAIAALLDAESSMRRQPIDPAEVAGLAEIVTTDGALRTLPCHLPHSDPRLAGLDGFYAARLVKSL”, “failed”; that for “MPAPTHGCPLPRFSVIVPAYKVQAYLHECLESVLEQSFPDLELIAVDDCSPDACGAIIDEFAARDTRVRPVHLPQNTGLGRARNAALAEATGDYLIFLDADDSLTPGALQAVADRIKETSEPDVLVYDYARTFWSGETVRNREAGQLTEQGPAPFRLDDRPGLLNVLMVVWNKAYRREFVEREGFTFPPGLYEDTPWTYPALMAAETVATLDRVCVHYRQRRRGNILGTTGRGHFDIFGQYDRVFAYLDGHPELAHWRPVLFRRMVDHVATVFTRRGRLPRGSHAEFLRRARAHYRRHRTPGPPARPRFRLRHVLVRLGSHRTYRLLSLASRTRVRTARSATAVLGRLAGVALQAHYRLQRRLPVRADRAVFASHQGQGHGCNPGALEAAFRTLAPHIRTAWIARPEHHHTVPAATRRVRPGSAAYWTALARSKYLVSNADFDRRLRKRPGQIVIQTHAGTPLKRMGLDLQDRPAAARDTDFAQVLRGADQWDYCLSANRHSTLVWERVFPSGFTTLEYGQPRNDRFQQATSADVTRLRESLGIPHGSVAILYAPTYRDYRRSQRHLLDLERVLRQLGPRYVVLTRAHPSYGAPLTRSDGARLIDVSGHPSVESLCLASDALVTDYSSLMFDYANLDRPIVVYADDWEAYEAARGTYFDLRAFPPGAVARTEEELIDIFATGHWRGSRAAQLRAAFRARFCPYDDGRAAERVVRRIVLGEGAREGERNSEGDGGATGLPPVVPLAGRHPVPSAAAALARPPLATVPHPAGPVPVVDSP”, “failed”.

With “MPAYVFSKESFLKFLEGHLEDDVVVVVSSDVTDFCKKLSESMVGEKEYCFAEFAFPADIFDADEDEIDEMMKYAIVFVEKEKLSEAGRNAIR”, the protein production entry is listed as “not failed”.

Regarding “MPCCSHRRCREDPGTSESQEMEEWALLDISQRKLYKEVMLETFRNLTSVGKSWKDQNIEYEYQNPRRNFRSLIEKKVNEIKDDSHCGETFTQVPDDRLNFQEKKASPEIKSCDSFVCGEVGLGNSSFNMNIRGDIGHKAYEYQEYGPKP”, the protein production entry is “failed”. For “MPDGPDPSSYGPDESPGPDPEEPSSSETAPARHARTTTASRRGHARERMPVSPDESASTFTFDRVVRFLLGAAAVGSVGWMVWYFAGIVLYLIVGGLLAYLLRPPVDYIQGLGVGRVPAILVAFAVFLGVIVVIVTSVVPFITRQVQDLSQLITIDTAAYVANLIEAQVQGVVPLEQGVLEENVRQAAESLMRGDLVEGQQVAETVSSVVSVFTNIVYAVVIVPFVTFFLLKDELRIRRSLLHLVPNRYFEVTLSILAKVELNIGRYFRALLVQGTAIAVIASTLLWIVGLRGAIAIGIFTGLANTIPYFGPFLGFLAGTLVGIAQTGDVSLVPGVALAMALTQLADNVLLQPLIFSRAAQTHPLVILFVVLAGAQLGGILGMLMAIPLTTTLRVIVEQLLWSLRNYRILRAG”, the protein production result was “failed”.
